Data taken from patent publication US20040224362A1.

Target: anti-FLAG M2 mouse monoclonal IgG1 (Sigma-Aldrich PN F-3165)
Assay: capture on a 1 m Protein G capillary, elution with 14.7 mM phosphoric acid pH 2.2, Bradford assay at 595 nm

amount of IgG trapped and eluted: 2.5 µg
Substance: Protein G (CalBiochem, San Diego, Calif., PN 539303) (from UniProt P19909 303-497)
